Experimental data as given in patent publication US20190300590A1 (PROTAGONIST THERAPEUTICS, published 2019).
Bridges are numbered along the chain shown (N, C = ends). Primed or numbered codes have the meaning given here. Where no end group is shown, it is not given here. [ ]: non-standard residue; d: D form. Bip = N[C@@H](Cc1ccc(-c2ccccc2)cc1)C(=O)O; 1Nal = N[C@@H](Cc1cccc2ccccc12)C(=O)O; NMeE = CN[C@@H](CCC(=O)O)C(=O)O; Aic′ = not defined here; PEG1 = NCCOCCC(=O)O; AEA = NCCOCC(=O)O

B1: Ac-CADWVCY-[1-Nal]-H-[AEP]-G-NH2 (peptide)
peptide: Ac-CADWVCY[1Nal]H[PEG1]G-NH2
modifications: disulfide 1-6
SMILES: CC(=O)N[C@H]1CSSC[C@@H](C(=O)N[C@@H](Cc2ccc(O)cc2)C(=O)N[C@@H](Cc2cccc3ccccc23)C(=O)N[C@@H](Cc2c[nH]cn2)C(=O)NCCOCCC(=O)NCC(N)=O)NC(=O)[C@H](C(C)C)NC(=O)[C@H](Cc2c[nH]c3ccccc23)NC(=O)[C@H](CC(=O)O)NC(=O)[C@H](C)NC1=O
B2: Ac-CADWVCY-[Aic]-HTFG-[AEA]-[(D)Lys]-NH2 (peptide)
peptide: Ac-CADWVCY[Aic′]HTFG[AEA][dK]-NH2
modifications: disulfide 1-6
B3: Ac-CADWVCY-[Bip]-HTFG-[AEA]-[(D)Lys]-NH2 (peptide)
peptide: Ac-CADWVCY[Bip]HTFG[AEA][dK]-NH2
modifications: disulfide 1-6
SMILES: CC(=O)N[C@H]1CSSC[C@@H](C(=O)N[C@@H](Cc2ccc(O)cc2)C(=O)N[C@@H](Cc2ccc(-c3ccccc3)cc2)C(=O)N[C@@H](Cc2c[nH]cn2)C(=O)N[C@H](C(=O)N[C@@H](Cc2ccccc2)C(=O)NCC(=O)NCCOCC(=O)N[C@H](CCCCN)C(N)=O)[C@@H](C)O)NC(=O)[C@H](C(C)C)NC(=O)[C@H](Cc2c[nH]c3ccccc23)NC(=O)[C@H](CC(=O)O)NC(=O)[C@H](C)NC1=O
B4: Ac-CQTWQCYW[N-MeGlu]-NG-[AEA]-[(D)-Lys] (peptide)
peptide: Ac-CQTWQCYW[NMeE]NG[AEA][dK]
modifications: disulfide 1-6 (inferred)
B5: Ac-CADWVC-NH2 (peptide)
peptide: Ac-CADWVC-NH2
modifications: disulfide 1-6 (inferred)
B6: Ac-CQDWQCYWRENG-[AEA]-[(D)-Lys]-NH2 (peptide)
peptide: Ac-CQDWQCYWRENG[AEA][dK]-NH2
modifications: disulfide 1-6 (inferred)
B7: Ac-CQTWQCYWRENG-[AEA]-[(D)-Lys]-NH2 (peptide)
peptide: Ac-CQTWQCYWRENG[AEA][dK]-NH2
modifications: disulfide 1-6
SMILES: CC(=O)N[C@H]1CSSC[C@@H](C(=O)N[C@@H](Cc2ccc(O)cc2)C(=O)N[C@@H](Cc2c[nH]c3ccccc23)C(=O)N[C@@H](CCCNC(=N)N)C(=O)N[C@@H](CCC(=O)O)C(=O)N[C@@H](CC(N)=O)C(=O)NCC(=O)NCCOCC(=O)N[C@H](CCCCN)C(N)=O)NC(=O)[C@H](CCC(N)=O)NC(=O)[C@H](Cc2c[nH]c3ccccc23)NC(=O)[C@H]([C@@H](C)O)NC(=O)[C@H](CCC(N)=O)NC1=O
B8: Ac-CQTWQCYWRENG-[AEA]-[(D)-Lys]-NH2 (peptide)
peptide: Ac-CQTWQCYWRENG[AEA][dK]-NH2
modifications: disulfide 1-6
SMILES: CC(=O)N[C@H]1CSSC[C@@H](C(=O)N[C@@H](Cc2ccc(O)cc2)C(=O)N[C@@H](Cc2c[nH]c3ccccc23)C(=O)N[C@@H](CCCNC(=N)N)C(=O)N[C@@H](CCC(=O)O)C(=O)N[C@@H](CC(N)=O)C(=O)NCC(=O)NCCOCC(=O)N[C@H](CCCCN)C(N)=O)NC(=O)[C@H](CCC(N)=O)NC(=O)[C@H](Cc2c[nH]c3ccccc23)NC(=O)[C@H]([C@@H](C)O)NC(=O)[C@H](CCC(N)=O)NC1=O
B9: Ac-CQTWQCYWRENG-[AEA]-[(D)-Lys]-NH2 (peptide)
peptide: Ac-CQTWQCYWRENG[AEA][dK]-NH2
modifications: disulfide 1-6
SMILES: CC(=O)N[C@H]1CSSC[C@@H](C(=O)N[C@@H](Cc2ccc(O)cc2)C(=O)N[C@@H](Cc2c[nH]c3ccccc23)C(=O)N[C@@H](CCCNC(=N)N)C(=O)N[C@@H](CCC(=O)O)C(=O)N[C@@H](CC(N)=O)C(=O)NCC(=O)NCCOCC(=O)N[C@H](CCCCN)C(N)=O)NC(=O)[C@H](CCC(N)=O)NC(=O)[C@H](Cc2c[nH]c3ccccc23)NC(=O)[C@H]([C@@H](C)O)NC(=O)[C@H](CCC(N)=O)NC1=O
B10: Ac-CQTWQCYWRENG-[AEA]-[(D)Arg]-NH2 (peptide)
peptide: Ac-CQTWQCYWRENG[AEA][dR]-NH2
modifications: disulfide 1-6
SMILES: CC(=O)N[C@H]1CSSC[C@@H](C(=O)N[C@@H](Cc2ccc(O)cc2)C(=O)N[C@@H](Cc2c[nH]c3ccccc23)C(=O)N[C@@H](CCCNC(=N)N)C(=O)N[C@@H](CCC(=O)O)C(=O)N[C@@H](CC(N)=O)C(=O)NCC(=O)NCCOCC(=O)N[C@H](CCCNC(=N)N)C(N)=O)NC(=O)[C@H](CCC(N)=O)NC(=O)[C@H](Cc2c[nH]c3ccccc23)NC(=O)[C@H]([C@@H](C)O)NC(=O)[C@H](CCC(N)=O)NC1=O
B11: Ac-CQTWQCYWRKNG-[AEA]-[(D)-Lys]-NH2 (peptide)
peptide: Ac-CQTWQCYWRKNG[AEA][dK]-NH2
modifications: disulfide 1-6
SMILES: CC(=O)N[C@H]1CSSC[C@@H](C(=O)N[C@@H](Cc2ccc(O)cc2)C(=O)N[C@@H](Cc2c[nH]c3ccccc23)C(=O)N[C@@H](CCCNC(=N)N)C(=O)N[C@@H](CCCCN)C(=O)N[C@@H](CC(N)=O)C(=O)NCC(=O)NCCOCC(=O)N[C@H](CCCCN)C(N)=O)NC(=O)[C@H](CCC(N)=O)NC(=O)[C@H](Cc2c[nH]c3ccccc23)NC(=O)[C@H]([C@@H](C)O)NC(=O)[C@H](CCC(N)=O)NC1=O
B12: Ac-CQTWQCYWRKNG-[AEA]-[(D)-Lys]-NH2 (peptide)
peptide: Ac-CQTWQCYWRKNG[AEA][dK]-NH2
modifications: disulfide 1-6
SMILES: CC(=O)N[C@H]1CSSC[C@@H](C(=O)N[C@@H](Cc2ccc(O)cc2)C(=O)N[C@@H](Cc2c[nH]c3ccccc23)C(=O)N[C@@H](CCCNC(=N)N)C(=O)N[C@@H](CCCCN)C(=O)N[C@@H](CC(N)=O)C(=O)NCC(=O)NCCOCC(=O)N[C@H](CCCCN)C(N)=O)NC(=O)[C@H](CCC(N)=O)NC(=O)[C@H](Cc2c[nH]c3ccccc23)NC(=O)[C@H]([C@@H](C)O)NC(=O)[C@H](CCC(N)=O)NC1=O
B13: Ac-CQTWQCYWRRNG-[AEA]-[(D)-Lys]-NH2 (peptide)
peptide: Ac-CQTWQCYWRRNG[AEA][dK]-NH2
modifications: disulfide 1-6
SMILES: CC(=O)N[C@H]1CSSC[C@@H](C(=O)N[C@@H](Cc2ccc(O)cc2)C(=O)N[C@@H](Cc2c[nH]c3ccccc23)C(=O)N[C@@H](CCCNC(=N)N)C(=O)N[C@@H](CCCNC(=N)N)C(=O)N[C@@H](CC(N)=O)C(=O)NCC(=O)NCCOCC(=O)N[C@H](CCCCN)C(N)=O)NC(=O)[C@H](CCC(N)=O)NC(=O)[C@H](Cc2c[nH]c3ccccc23)NC(=O)[C@H]([C@@H](C)O)NC(=O)[C@H](CCC(N)=O)NC1=O
B14: Ac-CQTWQCYWRTNG-[AEA]-[(D)-Lys]-NH2 (peptide)
peptide: Ac-CQTWQCYWRTNG[AEA][dK]-NH2
modifications: disulfide 1-6
SMILES: CC(=O)N[C@H]1CSSC[C@@H](C(=O)N[C@@H](Cc2ccc(O)cc2)C(=O)N[C@@H](Cc2c[nH]c3ccccc23)C(=O)N[C@@H](CCCNC(=N)N)C(=O)N[C@H](C(=O)N[C@@H](CC(N)=O)C(=O)NCC(=O)NCCOCC(=O)N[C@H](CCCCN)C(N)=O)[C@@H](C)O)NC(=O)[C@H](CCC(N)=O)NC(=O)[C@H](Cc2c[nH]c3ccccc23)NC(=O)[C@H]([C@@H](C)O)NC(=O)[C@H](CCC(N)=O)NC1=O
B15: Ac-CQTWQCYWRTNG-[AEA]-[(D)-Lys]-NH2 (peptide)
peptide: Ac-CQTWQCYWRTNG[AEA][dK]-NH2
modifications: disulfide 1-6
SMILES: CC(=O)N[C@H]1CSSC[C@@H](C(=O)N[C@@H](Cc2ccc(O)cc2)C(=O)N[C@@H](Cc2c[nH]c3ccccc23)C(=O)N[C@@H](CCCNC(=N)N)C(=O)N[C@H](C(=O)N[C@@H](CC(N)=O)C(=O)NCC(=O)NCCOCC(=O)N[C@H](CCCCN)C(N)=O)[C@@H](C)O)NC(=O)[C@H](CCC(N)=O)NC(=O)[C@H](Cc2c[nH]c3ccccc23)NC(=O)[C@H]([C@@H](C)O)NC(=O)[C@H](CCC(N)=O)NC1=O
B16: Ac-CQTWVCYWRENG-[AEA]-[(D)-Lys]-NH2 (peptide)
peptide: Ac-CQTWVCYWRENG[AEA][dK]-NH2
modifications: disulfide 1-6
SMILES: CC(=O)N[C@H]1CSSC[C@@H](C(=O)N[C@@H](Cc2ccc(O)cc2)C(=O)N[C@@H](Cc2c[nH]c3ccccc23)C(=O)N[C@@H](CCCNC(=N)N)C(=O)N[C@@H](CCC(=O)O)C(=O)N[C@@H](CC(N)=O)C(=O)NCC(=O)NCCOCC(=O)N[C@H](CCCCN)C(N)=O)NC(=O)[C@H](C(C)C)NC(=O)[C@H](Cc2c[nH]c3ccccc23)NC(=O)[C@H]([C@@H](C)O)NC(=O)[C@H](CCC(N)=O)NC1=O
B17: Ac-CQTWVCYWRENG-[AEA]-[(D)-Lys]-NH2 (peptide)
peptide: Ac-CQTWVCYWRENG[AEA][dK]-NH2
modifications: disulfide 1-6
SMILES: CC(=O)N[C@H]1CSSC[C@@H](C(=O)N[C@@H](Cc2ccc(O)cc2)C(=O)N[C@@H](Cc2c[nH]c3ccccc23)C(=O)N[C@@H](CCCNC(=N)N)C(=O)N[C@@H](CCC(=O)O)C(=O)N[C@@H](CC(N)=O)C(=O)NCC(=O)NCCOCC(=O)N[C@H](CCCCN)C(N)=O)NC(=O)[C@H](C(C)C)NC(=O)[C@H](Cc2c[nH]c3ccccc23)NC(=O)[C@H]([C@@H](C)O)NC(=O)[C@H](CCC(N)=O)NC1=O
B18: Ac-CRDWQCYWHKFG-[AEP]-[(D)Lys]-OH (peptide)
peptide: Ac-CRDWQCYWHKFG[PEG1][dK]-OH
modifications: disulfide 1-6
SMILES: CC(=O)N[C@H]1CSSC[C@@H](C(=O)N[C@@H](Cc2ccc(O)cc2)C(=O)N[C@@H](Cc2c[nH]c3ccccc23)C(=O)N[C@@H](Cc2c[nH]cn2)C(=O)N[C@@H](CCCCN)C(=O)N[C@@H](Cc2ccccc2)C(=O)NCC(=O)NCCOCCC(=O)N[C@H](CCCCN)C(=O)O)NC(=O)[C@H](CCC(N)=O)NC(=O)[C@H](Cc2c[nH]c3ccccc23)NC(=O)[C@H](CC(=O)O)NC(=O)[C@H](CCCNC(=N)N)NC1=O
B19: Ac-CRTWQCYWRKFG-[AEA]-[(D)-Lys]-NH2 (peptide)
peptide: Ac-CRTWQCYWRKFG[AEA][dK]-NH2
modifications: disulfide 1-6 (inferred)

Each binder was assayed against T1, IL23R_huFC (human, UniProt Q5VWK5 24-353) (assay: IL23-IL23R competitive ELISA).
T1 sequence (looked up): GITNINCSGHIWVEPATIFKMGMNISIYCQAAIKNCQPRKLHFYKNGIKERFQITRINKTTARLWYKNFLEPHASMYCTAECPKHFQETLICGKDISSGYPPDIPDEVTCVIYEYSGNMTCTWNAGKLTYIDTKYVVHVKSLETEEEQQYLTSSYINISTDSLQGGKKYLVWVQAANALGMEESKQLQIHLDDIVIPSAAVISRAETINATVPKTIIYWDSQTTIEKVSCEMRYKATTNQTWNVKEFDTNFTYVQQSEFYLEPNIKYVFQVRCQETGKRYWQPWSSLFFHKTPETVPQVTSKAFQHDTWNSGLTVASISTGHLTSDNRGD

IC50, > 1000 nM:
B1, B2, B3, B4, B5

Target: T1, IL23R_huFC
Experiment: IL23-IL23R competitive ELISA
Remark: another data set of the same source

IC50, < 500 nM:
B6, B7, B8, B9, B10, B11, B12, B13, B14, B15, B16, B17, B18, B19
